From the supplement of paper PMC9732359
± gives the uncertainty stated by the source.

Assay: protein stability index of a GFP-peptide fusion (yeast GPS) (PSI 1-4); higher = more stable; sorted into four equal gates, so the index is relative within each strain
Procedure, shortened: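 Peptides tiling yeast proteins in 17-residue segments were fused downstream of GFP, with Cherry expressed from the same plasmid. As a pooled library in yeast, mid-log cultures grown in leucine-free medium were sorted into four equal gates by GFP/Cherry fluorescence ratio. Gate plasmids were PCR-amplified and Illumina-sequenced, and barcodes linked reads to strains. Each peptide received a protein stability index equal to the sum of each gate's read frequency times its gate number.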

Sequence | protein stability index (doa10∆) | protein stability index (pdr5∆) | protein stability index (san1∆) | protein stability index (ubr1∆)
EHRRYDDQLKQRRQNIR [RPT4] | 2.62 ± 0.18 | 2.46 ± 0.18 | 2.29 ± 0.14 | 2.69 ± 0.12
HVKQCQETCDKLRARLV [SMC2] | 2.2 ± 0.18 | 2.74 ± 0.14 | 2.34 ± 0.11 | 2.21 ± 0.06
IVSFIVNCFHEDTELYQ [YJL039C/NUP192] | 1.62 ± 0.051 | 1.71 ± 0.051 | 2.22 ± 0.055 | 2.46 ± 0.036
YKWTQGINNLSEIWDVS [PRP8] | 3.03 ± 0.1 | 2.9 ± 0.077 | 3.12 ± 0.099 | 2.44 ± 0.066
SIGASIADLASLEQLLG [YCS4] | 2.84 ± 0.099 | 2.94 ± 0.064 | 2.9 ± 0.076 | 2.92 ± 0.033
AYVVNDTAPKPNIVEID [DLS1] | 3.26 ± 0.24 | 3.22 ± 0.19 | 2.97 ± 0.11 | 3.15 ± 0.19
KVEIPLPNEAGRLEIFK [RPT4] |  | 3.09 ± 0.17 | 2.52 ± 0.18 | 2.74 ± 0.21
PKILIREHERVILKQIL [SWP82] | 1.84 ± 0.081 | 2.18 ± 0.092 | 3.18 ± 0.24 | 3.15 ± 0.12
NQSAYEWNGKSFQKKSN [ISW2] | 3.16 ± 0.11 | 3.12 ± 0.17 | 3.09 ± 0.064 | 2.99 ± 0.13
TTSEKQEVTNEAPFLTS [GAL11] | 3.2 ± 0.093 | 3.35 ± 0.076 | 3.14 ± 0.11 | 3.36 ± 0.067
HELPRYGITHGLTNWAA [RPL5] | 2.44 ± 0.045 | 2.42 ± 0.035 | 2.47 ± 0.048 | 2.25 ± 0.035
DLSYNFNVHEVPRAALE [YMR129W/POM152] | 2.91 ± 0.057 | 3.04 ± 0.069 | 2.85 ± 0.054 | 2.92 ± 0.049
NNCEDFVSRPDRTMLAP [FAS1] | 3.28 ± 0.25 | 2.98 ± 0.17 | 2.93 ± 0.26 | 3.2 ± 0.11
WAGKRLWDQDIAIAGTG [COR1] | 3.25 ± 0.1 | 3.11 ± 0.12 | 2.56 ± 0.1 | 2.66 ± 0.072
NVNNNNIGQQQVKKPRK [SWI1] | 3.42 ± 0.12 | 3.37 ± 0.16 | 3.29 ± 0.084 | 3.13 ± 0.21
RNISFSDNNSRIMSRNF [SWI1] | 2.93 ± 0.047 | 2.85 ± 0.057 | 2.9 ± 0.068 | 3.16 ± 0.035
IQFLTIGAGVPSLEVAS [FAS1] | 1.18 ± 0.037 | 1.24 ± 0.056 | 1.2 ± 0.079 | 1.11 ± 0.039
QKVNAVDSTFQKVSENF [SMC3] | 3.29 ± 0.091 | 3.28 ± 0.079 | 3.44 ± 0.06 | 3.21 ± 0.04
LKVYKVGDIVDIKANGS [RPL21A] | 2.35 ± 0.054 | 2.14 ± 0.044 | 2.07 ± 0.052 | 2.11 ± 0.029
QENKNIDDENITKLNKE [SRB4] | 3.44 ± 0.056 | 3.23 ± 0.068 | 3.22 ± 0.052 | 3.46 ± 0.057
ERAKNVNGLLQVLMDIN [GAL11] | 2.94 ± 0.086 | 3.15 ± 0.083 | 3.19 ± 0.12 | 2.83 ± 0.04
VLQPLLPRELPKLLDAL [SNU114] | 2.15 ± 0.072 | 2.2 ± 0.11 | 2.73 ± 0.11 | 2.6 ± 0.096
LNVAEIITSGRDTREVL [ARP9] | 3.35 ± 0.14 | 3.25 ± 0.089 | 3.44 ± 0.051 | 3.43 ± 0.081
QESFINTMSAWVNMLLI [FAS2] | 2.2 ± 0.077 | 2.12 ± 0.085 | 2.08 ± 0.1 | 2.37 ± 0.066
NIAFDAHMSIGCLHKGK [YML031W/NDC1] | 3.07 ± 0.15 | 2.7 ± 0.089 | 1.55 ± 0.15 | 2.27 ± 0.086
YHQLLSDIESLEALMDI [SRB8] | 2.9 ± 0.13 | 2.84 ± 0.19 |  | 2.25 ± 0.2

Sequence | protein stability index (doa10∆) | protein stability index (pdr5∆) | protein stability index (san1∆) | protein stability index (ubr1∆)
HITSVPISAVLRGCKFL [GRR1] | 1.77 ± 0.044 | 1.66 ± 0.048 | 1.86 ± 0.064 | 2.05 ± 0.037
YSWLLFEASCMEGQKLD [YJR042W/NUP85] | 1.09 ± 0.094 | 1.36 ± 0.09 | 1.39 ± 0.2 | 1.17 ± 0.064
LRFPEHTSSGSVSFKVF [BRR2] | 1.59 ± 0.055 | 1.51 ± 0.054 | 1.33 ± 0.1 | 1.57 ± 0.06
IRARIPFYGSYTETDPA [SRP54] | 2.96 ± 0.092 | 2.91 ± 0.082 | 2.98 ± 0.06 | 2.96 ± 0.076
SMVLFFVCLSCSHIFTS [RPB9] | 1.55 ± 0.073 | 1.4 ± 0.081 | 1.43 ± 0.14 | 1.67 ± 0.095
HDSILHSRILPKKALKV [RRP43] | 2.08 ± 0.038 | 2.04 ± 0.041 | 1.68 ± 0.079 | 1.75 ± 0.034
LVQLPKSAMDTFKSVSK [POP3] | 2.65 ± 0.052 | 2.85 ± 0.044 | 2.75 ± 0.047 | 2.54 ± 0.036
LVDSLATFTSIELTSYE [RPN7] | 1.57 ± 0.057 | 2.08 ± 0.061 | 1.68 ± 0.057 | 1.72 ± 0.027
ILNFLNQEDLFELVHHF [YML103C/NUP188] | 2.56 ± 0.14 | 2.8 ± 0.083 | 1.88 ± 0.22 | 2.16 ± 0.072
AHTGATPIAGRFTPGSF [RPS0A] | 3.15 ± 0.17 | 2.91 ± 0.08 | 2.52 ± 0.17 | 2.81 ± 0.12
SGTDGSTIGILLLTIQL [SRP72] | 3.09 ± 0.064 | 2.91 ± 0.064 | 3.35 ± 0.054 | 3.15 ± 0.057
FSTNVKDEIVLSGNSVE [RPL9A] | 2.03 ± 0.13 | 2.18 ± 0.13 | 2.34 ± 0.13 | 2.59 ± 0.054
VAARGLDIPNVSLVVNF [PRP28] | 2 ± 0.12 | 2.5 ± 0.096 | 2.04 ± 0.12 | 3.1 ± 0.15
DYPFTQLGYIENSFYKK [POP1] |  | 3.14 ± 0.17 | 2.98 ± 0.1 | 3.44 ± 0.13
DMPSLRLIDLSGCENIT [GRR1] | 2.33 ± 0.083 | 2.7 ± 0.097 | 2.45 ± 0.094 | 2.65 ± 0.09
DLKKKLNSLKDERSQGE [SMC4] | 3.43 ± 0.14 | 3.16 ± 0.25 | 3.06 ± 0.16 | 3.71 ± 0.25
TLRPRQYATVSKTHKTV [RPL34A] | 2 ± 0.16 | 2.12 ± 0.093 |  | 
AIGTKRYDSNSGGEREI [RPT2] | 3.28 ± 0.22 | 3.54 ± 0.11 | 3.39 ± 0.12 | 3.5 ± 0.13
THSKLFADKKRDCIDIS [PRP8] | 3.45 ± 0.095 | 3.2 ± 0.077 | 3.18 ± 0.061 | 3.38 ± 0.074
NISHLLEIASSIDCLLI [SWI1] | 2.21 ± 0.068 | 2.16 ± 0.046 | 2.29 ± 0.078 | 2.04 ± 0.035
SRPGQSGRCDGYILEGE [RPS8A] | 3.38 ± 0.19 | 3.49 ± 0.17 | 3.3 ± 0.17 | 3.38 ± 0.049
IPVNKRRGAHGSELSSK [SIR3] | 3 ± 0.15 | 3.03 ± 0.15 | 3.11 ± 0.22 | 2.96 ± 0.19
LQLETPAEVGRAIRSEK [BRR2] | 2.08 ± 0.11 | 2.92 ± 0.063 | 1.66 ± 0.11 | 
NGCIFTLNPKTGHLFLK [PRP8] | 3.24 ± 0.064 | 2.92 ± 0.082 | 2.98 ± 0.083 | 2.97 ± 0.083
ESDGRMFIEEPTRMVRV [SRP54] | 2.77 ± 0.082 | 2.99 ± 0.11 | 2.83 ± 0.099 | 2.73 ± 0.054
KERISVAAASKILSNLV [PRE2] | 2.75 ± 0.059 | 2.69 ± 0.041 | 2.78 ± 0.048 | 2.71 ± 0.034
